Test results: paper PMC10580936
Numbering of substitutions follows the chain as printed.

Columns and labels:
[1] = system: T1, His-FepR wt (Listeria monocytogenes EGD-e), ORF:2866136e; assay: EMSA; conditions: […] (25 mM Tris, pH 5.5), 0.15 mM BSA, 2.5 mM EDTA, 10% glycerol, 20 mM DTT, 5 min at 25 C
T1 sequence: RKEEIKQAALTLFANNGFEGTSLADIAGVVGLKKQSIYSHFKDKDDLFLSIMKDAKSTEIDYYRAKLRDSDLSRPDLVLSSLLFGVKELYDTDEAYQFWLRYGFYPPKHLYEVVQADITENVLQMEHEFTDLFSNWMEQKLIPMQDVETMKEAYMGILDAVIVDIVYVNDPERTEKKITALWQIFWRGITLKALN

[2] = system: T2, His-FepR L24F L23F (Listeria monocytogenes EGD-e), ORF:2866136e; assay: EMSA; conditions: […] (25 mM Tris, pH 5.5), 0.15 mM BSA, 2.5 mM EDTA, 10% glycerol, 20 mM DTT, 5 min at 25 C
T2 sequence: T1 sequence with L23F

Sequence | binding [1] | binding [2]
CATTCCACTCCTCTCACAAAAACTGACGAACGTTCGTAAGTCATTTTCTCATGAAAAAAATTCTTTGTCAACAAAAAAATCCACTCTTTTAAAAGAGTGGATTCATGGATTTATTTTTCTTCTAAAAATTCGCTAATCAATTCGTATGTC (double strand) [PfepR G-27T] | no binding | 
CATTCCACTCCTCTCACAAAAACTGACGACCGTTCGTAAGTCATTTTCTCATGAAAAAAATTCTTTGTCAACAAAAAAATCCACTCTTTTAAAAGAGTGGATTCATGGATTTATTTTTCTTCTAAAAATTCGCTAATCAATTCGTATGTC (double strand) [PfepR wt] | binds | no binding
